From IntAct's records for PubMed 31515488

B1: Ropporin-1A (Homo sapiens), Q9HAT0 (parent)
chain: MAQTDKPTCIPPELPKMLKEFAKAAIRVQPQDLIQWAADYFEALSRGETPPVRERSERVALCNRAELTPELLKILHSQVAGRLIIRAEELAQMWKVVNLPTDLFNSVMNVGRFTEEIEWLKFLALACSALGVTITKTLKIVCEVLSCDHNGGSPRIPFSTFQFLYTYIAKVDGEISASHVSRMLNYMEQEVIGPDGIITVNDFTQNPRVQLE
partner: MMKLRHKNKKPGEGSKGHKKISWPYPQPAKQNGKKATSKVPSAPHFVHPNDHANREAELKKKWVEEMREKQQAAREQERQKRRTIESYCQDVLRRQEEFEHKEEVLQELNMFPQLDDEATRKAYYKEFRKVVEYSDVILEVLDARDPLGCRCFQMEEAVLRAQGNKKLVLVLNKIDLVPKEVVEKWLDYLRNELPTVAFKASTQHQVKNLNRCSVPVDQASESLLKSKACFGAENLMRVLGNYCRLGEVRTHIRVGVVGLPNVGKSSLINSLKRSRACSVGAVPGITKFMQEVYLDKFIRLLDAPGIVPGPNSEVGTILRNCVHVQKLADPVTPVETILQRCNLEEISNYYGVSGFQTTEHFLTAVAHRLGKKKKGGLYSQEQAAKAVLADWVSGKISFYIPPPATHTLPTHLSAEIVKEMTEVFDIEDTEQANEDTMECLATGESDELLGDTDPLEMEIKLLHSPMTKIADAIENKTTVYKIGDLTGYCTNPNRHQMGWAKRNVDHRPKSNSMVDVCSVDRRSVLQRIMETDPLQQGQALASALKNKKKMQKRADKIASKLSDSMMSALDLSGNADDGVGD
B2: Grainyhead-like protein 2 homolog (Homo sapiens), Q6ISB3 (parent)
chain: MSQESDNNKRLVALVPMPSDPPFNTRRAYTSEDEAWKSYLENPLTAATKAMMSINGDEDSAAALGLLYDYYKVPRDKRLLSVSKASDSQEDQEKRNCLGTSEAQSNLSGGENRVQVLKTVPVNLSLNQDHLENSKREQYSISFPESSAIIPVSGITVVKAEDFTPVFMAPPVHYPRGDGEEQRVVIFEQTQYDVPSLATHSAYLKDDQRSTPDSTYSESFKDAATEKFRSASVGAEEYMYDQTSSGTFQYTLEATKSLRQKQGEGPMTYLNKGQFYAITLSETGDNKCFRHPISKVRSVVMVVFSEDKNRDEQLKYWKYWHSRQHTAKQRVLDIADYKESFNTIGNIEEIAYNAVSFTWDVNEEAKIFITVNCLSTDFSSQKGVKGLPLMIQIDTYSYNNRSNKPIHRAYCQIKVFCDKGAERKIRDEERKQNRKKGKGQASQTQCNSSSDGKLAAIPLQKKSDITYFKTMPDLHSQPVLFIPDVHFANLQRTGQVYYNTDDEREGGSVLVKRMFRPMEEEFGPVPSKQMKEEGTKRVLLYVRKETDDVFDALMLKSPTVKGLMEAISEKYGLPVEKIAKLYKKSKKGILVNMDDNIIEHYSNEDTFILNMESMVEGFKVTLMEI
partner: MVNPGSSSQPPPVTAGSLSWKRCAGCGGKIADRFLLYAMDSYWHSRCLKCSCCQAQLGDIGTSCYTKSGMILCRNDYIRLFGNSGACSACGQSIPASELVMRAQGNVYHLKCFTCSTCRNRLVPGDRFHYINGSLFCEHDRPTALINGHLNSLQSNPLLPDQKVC
B3: Max-like protein X (Homo sapiens), Q9UH92 (parent)
chain: MTEPGASPEDPWVKASPVGAHAGEGRAGRARARRGAGRRGASLLSPKSPTLSVPRGCREDSSHPACAKVEYAYSDNSLDPGLFVESTRKGSVVSRANSIGSTSASSVPNTDDEDSDYHQEAYKESYKDRRRRAHTQAEQKRRDAIKRGYDDLQTIVPTCQQQDFSIGSQKLSKAIVLQKTIDYIQFLHKEKKKQEEEVSTLRKDVTALKIMKVNYEQIVKAHQDNPHEGEDQVSDQVKFNVFQGIMDSLFQSFNASISVASFQELSACVFSWIEEHCKPQTLREIVIGVLHQLKNQLY
partner: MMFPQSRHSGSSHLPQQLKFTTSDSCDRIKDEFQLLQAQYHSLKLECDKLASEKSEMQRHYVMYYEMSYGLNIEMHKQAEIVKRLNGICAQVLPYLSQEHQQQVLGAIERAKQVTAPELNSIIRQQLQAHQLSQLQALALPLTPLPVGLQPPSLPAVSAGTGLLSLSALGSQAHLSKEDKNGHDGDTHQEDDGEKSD
B4: "Dol-P-Man:Man(5)GlcNAc(2)-PP-Dol alpha-1,3-mannosyltransferase" (Homo sapiens), Q92685 (parent)
chain: MAAGLRKRGRSGSAAQAEGLCKQWLQRAWQERRLLLREPRYTLLVAACLCLAEVGITFWVIHRVAYTEIDWKAYMAEVEGVINGTYDYTQLQGDTGPLVYPAGFVYIFMGLYYATSRGTDIRMAQNIFAVLYLATLLLVFLIYHQTCKVPPFVFFFMCCASYRVHSIFVLRLFNDPVAMVLLFLSINLLLAQRWGWGCCFFSLAVSVKMNVLLFAPGLLFLLLTQFGFRGALPKLGICAGLQVVLGLPFLLENPSGYLSRSFDLGRQFLFHWTVNWRFLPEALFLHRAFHLALLTAHLTLLLLFALCRWHRTGESILSLLRDPSKRKVPPQPLTPNQIVSTLFTSNFIGICFSRSLHYQFYVWYFHTLPYLLWAMPARWLTHLLRLLVLGLIELSWNTYPSTSCSSAALHICHAVILLQLWLGPQPFPKSTQHSKKAH
partner: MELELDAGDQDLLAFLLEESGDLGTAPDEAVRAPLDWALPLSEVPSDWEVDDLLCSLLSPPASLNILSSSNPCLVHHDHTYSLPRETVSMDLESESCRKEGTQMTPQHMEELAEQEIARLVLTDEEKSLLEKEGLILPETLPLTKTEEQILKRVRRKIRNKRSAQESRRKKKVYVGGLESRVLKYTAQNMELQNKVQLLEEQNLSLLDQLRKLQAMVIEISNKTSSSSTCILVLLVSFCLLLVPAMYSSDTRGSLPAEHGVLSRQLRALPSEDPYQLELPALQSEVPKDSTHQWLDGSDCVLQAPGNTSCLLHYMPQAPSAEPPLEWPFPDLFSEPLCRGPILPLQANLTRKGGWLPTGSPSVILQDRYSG
B5: Pyruvate dehydrogenase protein X component, mitochondrial (Homo sapiens), O00330 (parent)
chain: MAASWRLGCDPRLLRYLVGFPGRRSVGLVKGALGWSVSRGANWRWFHSTQWLRGDPIKILMPSLSPTMEEGNIVKWLKKEGEAVSAGDALCEIETDKAVVTLDASDDGILAKIVVEEGSKNIRLGSLIGLIVEEGEDWKHVEIPKDVGPPPPVSKPSEPRPSPEPQISIPVKKEHIPGTLRFRLSPAARNILEKHSLDASQGTATGPRGIFTKEDALKLVQLKQTGKITESRPTPAPTATPTAPSPLQATAGPSYPRPVIPPVSTPGQPNAVGTFTEIPASNIRRVIAKRLTESKSTVPHAYATADCDLGAVLKVRQDLVKDDIKVSVNDFIIKAAAVTLKQMPDVNVSWDGEGPKQLPFIDISVAVATDKGLLTPIIKDAAAKGIQEIADSVKALSKKARDGKLLPEEYQGGSFSISNLGMFGIDEFTAVINPPQACILAVGRFRPVLKLTEDEEGNAKLQQRQLITVTMSSDSRVVDDELATRFLKSFKANLENPIRLA

Variants of: B1
Conditions: with gnl3l_human GNL3L

| Variant | effect of a mutation on the interaction |
| --- | --- |
| C62W | with no effect |

Variants of: B2
Conditions: with lmo4_human LMO4, P61968

| Variant | effect of a mutation on the interaction |
| --- | --- |
| K9R | with no effect |

Variants of: B3
Conditions: with tle5_human TLE5, Q08117

| Variant | effect of a mutation on the interaction |
| --- | --- |
| Q223R | with no effect |

Variants of: B4
Conditions: with creb3_human CREB3, O43889

| Variant | effect of a mutation on the interaction |
| --- | --- |
| I107V | with no effect |

Variants of: B5
Conditions: with atrap_human AGTRAP

| Variant | effect of a mutation on the interaction |
| --- | --- |
| N270S | with no effect |
